Laboratory results published in the nanobody polyreactivity screen of Harvey et al. (2022).

Assay: yeast display, Sf9 membrane polyspecificity reagent, FACS + sequencing; frameworks hold sequencing errors
Procedure, shortened: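 In a synthetic yeast display library (Saccharomyces cerevisiae BJ5465), nanobody expression was induced with galactose for 36–48 hours. FACS gates were set low and high (top ~1%) using anti-HA fluorescence for expression and streptavidin fluorescence for binding of the Sf9 membrane reagent. Each polyreactivity label is drawn from the gate of origin.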
With “QVQLVESGGGLVQAGGSLRLSCAASGIIFGRNTMGWYRPAPGKERELVAGISSNGGSTYYADSVKGRFTISRDNAKNTVYLQMNRLKPEDTAVYYCAAYYNIPDRRRVGYDYWGQGTQVTVSS” the “polyreactivity (PSR sort gate)” value was “high polyreactivity”.
For “QVQLVESGGGLVQAGGSLRLSCAASGIIFGRYAMGWYRHAPGKERELVAAISTSGCSTYYADSVKGRFTISRDNAKTTVYLQMNSLKPEDTAVYYCAARHREAQRRYDYWGQGTQVTVSS”, the “polyreactivity (PSR sort gate)” value was “high polyreactivity”.
In the case of “QVQLVESGGGLVQAGGSLRLSCAASGIIFGRYAMGWYRQAPGKERELVAAITRSGGRTYYADSVKGRFTISRDNAKNTVYLQMNSLKPEDTAVYYCAADASGHSYDYWGQGTQVTVSS”, the “polyreactivity (PSR sort gate)” value is reported as “high polyreactivity”.
With “QVQLVESGGGLVQAGGSLRLSCAASGIIFGRYAMGWYRQAPGKERELVAVINWSGDSTYYADSVKGRFTISRDNAKNTVYLQMNSLKPEDTAVYYCAALNYKGRYRQYYWGQGTQVTVSS” the “polyreactivity (PSR sort gate)” value was “high polyreactivity”.
With “QVQLVESGGGLVQAGGSLRLSCAASGIIFGRYAMGWYTPAPGKERELVATISYRGGRTYYADSVKGRFTISRDNAKNTVYLQMNSLKPEDTAVYYCAAPHFSYSGGTHDYWGQGTQVTVSS” the “polyreactivity (PSR sort gate)” value was “high polyreactivity”.
For “QVQLVESGGGLVQAGGSLRLSCAASGIIFGRYTMGWYRQAPGKERELVAAITSSGITYYADSVKGRFTISRDNAKNTVYLQMHSLTPEDTAVYYCAADSPVSVTADDGYSGQGTQVTVSS”, the “polyreactivity (PSR sort gate)” value was “low polyreactivity”.
With “QVQLVESGGGLVQAGGSLRLSCAASGIIFGSNTMGWYRQAPGKERELVAAITSSDGSTHYADSVKGRFTISRDNAKNTVYLQMNTLKPEDTAVYYCAARKVTYGHSYGYDYWGQGTQVTVSS” the “polyreactivity (PSR sort gate)” value was “low polyreactivity”.
With “QVQLVESGGGLVQAGGSLRLSCAASGIIFGSYAMGWYRQAPGKERELVAAISTSGGSTYYADSVKGRFTISRDNAKNTVYLQMNSLKPEDTAVYYCNKAGVYRDSSRYNYWGQGTQVTVSS” the “polyreactivity (PSR sort gate)” value was “high polyreactivity”.
In the case of “QVQLVESGGGLVQAGGSLRLSCAASGIIFGTNAMGWYRQAPGKERELVAGITSSGDSTYYADSVKGRFTISRDNAKNTVYLQMNSLKPEDTAVYYCARDIRTREFDSWGQGTQVTVSS”, the “polyreactivity (PSR sort gate)” value is reported as “low polyreactivity”.
With “QVQLVESGGGLVQAGGSLRLSCAASGIIFGTYAMGWYRQAPGKERELVAAIRRSGTGTYYADSVKGRFTISRDNAKNTVYLQMNSLKPEDTAVDYCNVVRSYAYDSWGQGTQVTVSS” the “polyreactivity (PSR sort gate)” value was “high polyreactivity”.
With “QVQLVESGGGLVQAGGSLRLSCAASGIIFGWYAMGWYRQAPGKEREFVATISWSGASTYYADSVKGRFTISRDNAKNTVYLQMNSLKPEDTAVYYCAAGGRRQAYGRRDYWGQGTQVTVSS” the “polyreactivity (PSR sort gate)” value was “high polyreactivity”.
For “QVQLVESGGGLVQAGGSLRLSCAASGIIFGYNAMGCYRQAPGKERELVASIDVSGGITYYADSVKGRFTISRDNAKNTVYLQMNSLKPEDTAVYYCAAYRYGSRYGYEYWGQGTQVTVSS”, the “polyreactivity (PSR sort gate)” value was “high polyreactivity”.
For “QVQLVESGGGLVQAGGSLRLSCAASGIIFGYYAMGWSRKAPGKERELVAAISRGGNTNYADSVKGRFTISRDNAKNTVYLQMNSLKPEDTAVYYCAADFWSRIIYFYAVDVDYWGQGTQVTVSS”, the “polyreactivity (PSR sort gate)” value was “low polyreactivity”.
With “QVQLVESGGGLVQAGGSLRLSCAASGIIFGYYAMGWSRQEPGKERELVAAINQDGSSTYYADSVKGRFTISRDNAKNTVYLQMNSLKPEVTAVYYCNARGVPRQDARMGYWGEGTQVTVSS” the “polyreactivity (PSR sort gate)” value was “low polyreactivity”.
For “QVQLVESGGGLVQAGGSLRLSCAASGIIFGYYAMGWYRQAPGKEREFVAAINYSGVSTYYADSVKGRFTISRDNAKNTVYLQMNSLKPEDTAVYSCAADFRIVVYGWGGSHMDYWGQGTQVTVSS”, the “polyreactivity (PSR sort gate)” value was “low polyreactivity”.
For “QVQLVESGGGLVQAGGSLRLSCAASGIIFGYYTMGWYRQAPGKERELVARITTGSSTNYADSVKGRFTISRDNAKNTVYLQMNSLKPEDTAVYYCAAVPIAADKANGYDYWGQGTQVTVSS”, the “polyreactivity (PSR sort gate)” value was “low polyreactivity”.
For “QVQLVESGGGLVQAGGSLRLSCAASGIIFHFNDMGWYRQAPGKERELVAAITSGGSTNYADSVKGRFTISRDNAKNTVYLQMNSLKPEDTAVYYCAARRGLRLFAYRHGYWGQGTQVTVSS”, the “polyreactivity (PSR sort gate)” value was “low polyreactivity”.
In the case of “QVQLVESGGGLVQAGGSLRLSCAASGIIFHFNDMGWYRQAPRKERELVAAIDSTGSTNYADSVKGRFTISRDNAKNTVYLQMNSLKPEDTAVYYCAVLNHRVDSVLTRYYYWGQGTQVTVSS”, the “polyreactivity (PSR sort gate)” value is reported as “low polyreactivity”.
In the case of “QVQLVESGGGLVQAGGSLRLSCAASGIIFHPYAMGWYRQAPGKERELVAVITWPGDSTYYADSVKGRFTISRDNAKNTVYLQMNSLKPEDTAVYYCNVDAWGTSGELPYDYWGQGSQVTVSS”, the “polyreactivity (PSR sort gate)” value is reported as “low polyreactivity”.
With “QVQLVESGGGLVQAGGSLRLSCAASGIIFHRNDMGWYRQAPGKERELVANIRDGGITYADSVKGRFTISRDKAKNTVYLQMNSLKPEDTAVYYCARDDTSPGYGDQSSNAAYYYWGQGTQVTVSS” the “polyreactivity (PSR sort gate)” value was “low polyreactivity”.
In the case of “QVQLVESGGGLVQAGGSLRLSCAASGIIFHYYAMGWYRQAPVKERELVAVITSGGSTNYADSVKGRFTISRDNAKNTVYLQMNSLKPEDTAVYYCAADPIRDSWWQYFQDGREYDYWGQGTQVTVSS”, the “polyreactivity (PSR sort gate)” value is reported as “low polyreactivity”.
In the case of “QVQLVESGGGLVQAGGSLRLSCAASGIIFIGNAMGWYRQAPGKERELVAAISRRGGGTYYADSVKGRFTISRDNAKNTVYLQMNSLKPEDTAVYYCNAEITVNDDDYWGQGTQVTVSS”, the “polyreactivity (PSR sort gate)” value is reported as “high polyreactivity”.
For “QVQLVESGGGLVQAGGSLRLSCAASGIIFIGNAMGWYRQAPGKERELVAAISWNGVRTYYADSVKGRFTISRDNAKNTVYLQMNSLKPEYTAVYYCAAVTRRGIKLDYWGQGTQVTVSS”, the “polyreactivity (PSR sort gate)” value was “high polyreactivity”.
For “QVQLVESGGGLVQAGGSLRLSCAASGIIFIHNAMGGYRQAPGTERELVAAINWSGGRTSYADSVKGRFTISRDNAKNTVYLQMTRLKPEDTAVYYCAADGRRYSGEYYYWGQGTQVTVSS”, the “polyreactivity (PSR sort gate)” value was “high polyreactivity”.
With “QVQLVESGGGLVQAGGSLRLSCAASGIIFINYVKGWYRQAPGKESELVAAITGSGSSTYYADSVKGRFTISRDNAKNTVYLQMNSLKPEDTAVYYCAADNPRVRFLYYYWGQGTQVTVSS” the “polyreactivity (PSR sort gate)” value was “high polyreactivity”.
In the case of “QVQLVESGGGLVQAGGSLRLSCAASGIIFIRYAMGWYRQAPGKERELVAAISWRGGSTYYADSVKGRFTISRDNAKNTVYFQMNSLKPEDTAVYYCAAGYFSYRRYDYWGEGTQVTVSS”, the “polyreactivity (PSR sort gate)” value is reported as “high polyreactivity”.
In the case of “QVQLVESGGGLVQAGGSLRLSCAASGIIFIWNTMGWYRQAPGKEREFVAAISRSGSGTSYADSVKGRFTISRDNAKNTVYLQMNSLKPEDTAVYYWDARLEWPYDMYYWGQGTQVTVSS”, the “polyreactivity (PSR sort gate)” value is reported as “low polyreactivity”.
For “QVQLVESGGGLVQAGGSLRLSCAASGIIFIYYVMGWYRQAPGKERELVAAISRSGGSTYYADSVKGRFTISRDNAKNTVNLQMNSLKPEDTAVYYCAARRITSTDEYYWGQGTQVTVSS”, the “polyreactivity (PSR sort gate)” value was “high polyreactivity”.
In the case of “QVQLVESGGGLVQAGGSLRLSCAASGIIFKLYAMGWYRQAPGKEREFVATITKTCGRTYYADSVKGRFTISRDNAKNTVYLQMNSLKPEDTAVYYCAARRVNGKMYYWGQGTQVTVSS”, the “polyreactivity (PSR sort gate)” value is reported as “high polyreactivity”.
With “QVQLVESGGGLVQAGGSLRLSCAASGIIFKSYTMGWYRQAPGKERELVAAINSSGDRTYYADSVKGRFTISRDNAKNTVYLQMNSLKPEDTAVYYCAAAPVKKSRFRYDYWGQGTQVTVSS” the “polyreactivity (PSR sort gate)” value was “high polyreactivity”.
In the case of “QVQLVESGGGLVQAGGSLRLSCAASGIIFKVNVMGWYRQAPGKERELVAAISWSGGSTYYADSVKGRFTISRDNAKNTFYLQMNILKPEDTAVYYCAAYSYVYGERYYFWGQGTQLTVSS”, the “polyreactivity (PSR sort gate)” value is reported as “high polyreactivity”.
In the case of “QVQLVESGGGLVQAGGSLRLSCAASGIIFLRNTMGWNRQAPGKERELVASISRRGGSTYYADSVKGRFTISRDNAKNTVYFQLNSLNPEDTAVYYCAATVRGKRSTYDYWGQGTQVTVSS”, the “polyreactivity (PSR sort gate)” value is reported as “high polyreactivity”.
With “QVQLVESGGGLVQAGGSLRLSCAASGIIFLSYAIGWYRQAPGKERELFAAISSGVSTYSADSVKGRFTISRDNAKNPVYFQMNSLKPEDTAVYFCAAYYLWPGYQFRPYDYWGQGTQVTVSS” the “polyreactivity (PSR sort gate)” value was “low polyreactivity”.
With “QVQLVESGGGLVQAGGSLRLSCAASGIIFLSYAMGWYRQAPGKERELVAAIRSRGDSTYYADSVKGRFTISRDNAKNTVYLQMNSLKAEDTAVYYCNARQRRYPYGYWGQGTQVTVSS” the “polyreactivity (PSR sort gate)” value was “high polyreactivity”.
For “QVQLVESGGGLVQAGGSLRLSCAASGIIFLYYAMGWYRQAPGKERELVAAISRSGGRTFYADSVKGRFTISRDNAKNTVFLQMNSLKAEDTAVYYCAADALIYYKGSPDYYWGQGTQVTVSS”, the “polyreactivity (PSR sort gate)” value was “high polyreactivity”.
In the case of “QVQLVESGGGLVQAGGSLRLSCAASGIIFNSYAMGWYRQAPGKERELVAAISRSGTSTYYADSVKGRFTISRDNAKNTVYLQMNSLKPEDTAVYYCNVARGYYSYSSRIDYYWGQGTQVTVSS”, the “polyreactivity (PSR sort gate)” value is reported as “high polyreactivity”.
For “QVQLVESGGGLVQAGGSLRLSCAASGIIFNTYVMGWYRQAPGKERELVAAISRRGGSTYYADSVKGRFTISRDNAKNTVYLQMNSLKPEDTAVYYCAADVLYQQAGSYYWGQGTQVTVSS”, the “polyreactivity (PSR sort gate)” value was “high polyreactivity”.
In the case of “QVQLVESGGGLVQAGGSLRLSCAASGIIFNYYAMGWYRQAPGKERELVAAIRISDTTYYADSVKGRFTISRDNAKNTVYLQMNSLKPEDTAVYYCNTLYYYYYGEVYVRDYDYWGQGTQVTVSS”, the “polyreactivity (PSR sort gate)” value is reported as “low polyreactivity”.
With “QVQLVESGGGLVQAGGSLRLSCAASGIIFNYYTMGWYRQAPGKERELVAVISWRGGSTFYADSVKGRFTISRDNAKNTVYLQMNSLKPEDTAVYYCAAVLFGDYPPVYYPTEYDYWGQGTQVTVSS” the “polyreactivity (PSR sort gate)” value was “low polyreactivity”.
For “QVQLVESGGGLVQAGGSLRLSCAASGIIFPHYAMGWYRQEPGKERELVAAITRSGGSTYYADSVKGRFTISRDNAKNTVYLQMNSLKPEDTAVYYCAAKRPVQSGGYNYWGQGTQVTVSS”, the “polyreactivity (PSR sort gate)” value was “high polyreactivity”.
With “QVQLVESGGGLVQAGGSLRLSCAASGIIFPLYMGWDRQAPGTERVLVAAINSIGGRTYYADSVKGRFTISRDNAKNTVYLQMNSLKPEDTAVYYCNAVPVGWRYRQYDYWGQGTQVTVSS” the “polyreactivity (PSR sort gate)” value was “high polyreactivity”.
With “QVQLVESGGGLVQAGGSLRLSCAASGIIFPRYAMGWYRQAPGKERELVAAITIGGRTNYSDSVKGRFTISRDNAKNTVYLQMNSLKPEDTAVYYCAAQTYVPYYEYDYWGQGTQVTVSS” the “polyreactivity (PSR sort gate)” value was “low polyreactivity”.
In the case of “QVQLVESGGGLVQAGGSLRLSCAASGIIFPRYMGWYRQEPGKERELVAAIRWSSDDTNYADSVKGRFTISRDNAKNTVYLQMNSLKPEDSAVYYCAKDSLYGVPFDVDYWGQGTQVTVSS”, the “polyreactivity (PSR sort gate)” value is reported as “low polyreactivity”.
